Reference: patent publication US20250034594A1, “RNA-GUIDED GENOME RECOMBINEERING AT KILOBASE SCALE” (THE BOARD OF TRUSTEES OF THE LELAND STANFORD JUNIOR …, priority 2021, published 2025)

B1: EcRecE_587: Escherichia coli RecE truncated from AA587; SEQ ID NO: 2 (protein)
chain: ADPVIVEDIEPGIYYGISNENYHAGPGVSKSQLDDIADTPALYLWRKNAPVDTTKTKTLDLGTAFHCRVLEPEEFSNRFIVAPEFNRRTNSGKEEEKAFLRECASTGKTVITAEEGRKIELMYQSVMALPLGQWLVESAGHAESSIYWEDPETAILCRCRPDKIIPEFHWIMDVKTTADIQRFKTAYYDYRYHVQDAFYSDGYEAQFGVQPTFVFLVASTTIECGRYPVEIFMMGEEAKLAGQLEYHRNLRTLADCLNTDEWPAIKTLSLPRWAKEYAND
B2: Homolog_E12: RecE, Acetobacter; SEQ ID NO: 136 (protein, listed as Acetobacter sp.)
chain: MVISKSGIYDLTNEQYHADPCPEMSLSSSGARDLLSSCPAKFIAAKQLPQQNKRCFDIGSAGHLMVLEPHLFDQKVCEIKHPDWRTKAAKEERDAAYAEGRIPLLSREVEDIRAMHSVVWRDSLGARAFSGGKAEQSLVWRDEEFGIWCRLRPDYVPNNAVRIFDYKTATNGSPDAFMKEIYNRGYHQQAAWYLDGYEAVTGHRPREFWFVVQEKTAPFLLSFFQMDEMSLEIGRTLNRQAKGIFAWCLRNNCWPGYQPEVDGKVRFFTTSPPAWLVREYEFKNEHGAYEPPEIKRKEVA
B3: Homolog_T13: RecT, Salmonella enterica subsp. enterica serovar Javiana str. 10721; SEQ ID NO: 137 (protein, listed as Salmonella enterica)
chain: MPKQPPIAKADLQKTQGARTPTAVKNNNDVISFINQPSMKEQLAAALPRHMTAERMIRIATTEIRKVPALGDCDTMSFVSAIVQCSQLGLEPGGALGHAYLLPFGNRNEKSGKKNVQLIIGYRGMIDLARRSGQIASLSARVVREGDDFSFEFGLEEKLVHRPGENEDAPVTHVYAVARLKDGGTQFEVMTRKQIELVRAQSKAGNNGPWVTHWEEMAKKTAIRRLFKYLPVSIEIQRAVSMDEKETLTIDPADASVITGEYSVVENAGVEENVTA
B4: Homolog_E13: RecE, Salmonella enterica subsp. enterica serovar Javiana str. 10721; SEQ ID NO: 138 (protein, listed as Salmonella enterica)
chain: MYYDIPNEAYHAGPGVSKSQLDDIADTPAIYLWRKNAPVDTEKTKSLDTGTAFHCRVLEPEEFSKRFIIAPEFNRRTSAGKEEEKTFLEECTRTGRTVLTAEEGRKIELMYQSVMALPLGQWLVESAGYAESSVYWEDPETGILCRCRPDKIIPEFHWIMDVKTTADIQRFRTAYYDYRYHVQDAFYSDGYRAQFGEIPTFVFLVASTTAECGRYPVEIFMMGEDAKLAGQREYRRNLQTLAECLNNDEWPAIKTLSLPRWAKENANA
B5: Homolog_T14: RecT, Pseudobacteriovorax antillogorgiicola; SEQ ID NO: 139 (protein, listed as Pseudobacteriovorax antillogorgiicola)
chain: MGHLVSKTEQDYIKQHYAKGATDQEFEHFIGVCRARGLNPAANQIYFVKYRSKDGPAKPAFILSIDSLRLIAHRTGDYAGCSEPIFTDGGKACTVTVRRNLKSGETGNFSGMAFYDEQVQQKNGRPTSFWQSKPRTMLEKCAEAKALRKAFPQDLGQFYIREEMPPQYDEPIQVHKPKALEEPRFSKSDLSRRKGLNRKLSALGVDPSRFDEVATFLDGTPDRELGQKLKLWLKEAGYGVNQ
B6: Homolog_E14: RecE, Pseudobacteriovorax antillogorgiicola; SEQ ID NO: 140 (protein, listed as Pseudobacteriovorax antillogorgiicola)
chain: MSKLSNLKVSNSDVDTLSRIRMKEGVYRDLPIESYHQSPGYSKTSLCQIDKAPIYLKTKVPQKSTKSLNIGTAFHEAMEGVFKDKYVVHPDPGVNKTTKSWKDFVKRYPKHMPLKRSEYDQVLAMYDAARSYRPFQKYHLSRGFYESSFYWHDAVTNSLIKCRPDYITPDGMSVIDFKTTVDPSPKGFQYQAYKYHYYVSAALTLEGIEAVTGIRPKEYLFLAVSNSAPYLTALYRASEKEIALGDHFIRRSLLTLKTCLESGKWPGLQEEILELGLPFSGLKELREEQEVEDEFMELVG
B7: Homolog_T15: RecT, Photobacterium sp. JCM 19050; SEQ ID NO: 141 (protein, listed as Photobacterium sp.)
chain: MNTDMIAMPPSPAISMLDTSKLDVMVRAAELMSQAVVMVPDHFKGKPADCLAVVMQADQWGMNPFTVAQKTHLVSGTLGYESQLVNAVISSSKAIKGRFHYEWSDGWERLAGKVQYVKESRQRKGQQGSYQVTVAKPTWKPEDEQGLWVRCGAVLAGEKDITWGPKLYLASVLVRNSELWTTKPYQQAAYTALKDWSRLYTPAVMQGSMTGKSWSLTGRLISPR
B8: Homolog_E15: RecE, Photobacterium sp. JCM 19050; SEQ ID NO: 142 (protein, listed as Photobacterium sp.)
chain: MAERVRTYQRDAVFAHELKAEFDEAVENGKTGVTLEDQARAKRMVHEATTNPASRNWFRYDGELAACERSYFWRDEEAGLVLKARPDKEIGNNLIDVKSIEVPTDVCACDLNAYINRQIEKRGYHISAAHYLSGTGKDRFFWIFINKVKGYEWVAIVEASPLHIELGTYEVLEGLRSIASSTKEADYPAPLSHPVNERGIPQPLMSNLSTYAMKRLEQFREL
B9: RecE: Escherichia coli RecE exonuclease; SEQ ID NO: 1 (protein, listed as Escherichia coli)
chain: MSTKPLFLLRKAKKSSGEPDVVLWASNDFESTCATLDYLIVKSGKKLSSYFKAVATNFPVVNDLPAEGEIDFTWSERYQLSKDSMTWELKPGAAPDNAHYQGNTNVNGEDMTEIEENMLLPISGQELPIRWLAQHGSEKPVTHVSRDGLQALHIARAEELPAVTALAVSHKTSLLDPLEIRELHKLVRDTDKVFPNPGNSNLGLITAFFEAYLNADYTDRGLLTKEWMKGNRVSHITRTASGANAGGGNLTDRGEGFVHDLTSLARDVATGVLARSMDLDIYNLHPAHAKRIEEIIAENKPPFSVFRDKFITMPGGLDYSRAIVVASVKEAPIGIEVIPAHVTEYLNKVLTETDHANPDPEIVDIACGRSSAPMPQRVTEEGKQDDEEKPQPSGTTAVEQGEAETMEPDATEHHQDTQPLDAQSQVNSVDAKYQELRAELHEARKNIPSKNPVDDDKLLAASRGEFVDGISDPNDPKWVKGIQTRDCVYQNQPETEKTSPDMNQPEPVVQQEPEIACNACGQTGGDNCPDCGAVMGDATYQETFDEESQVEAKENDPEEMEGAEHPHNENAGSDPHRDCSDETGEVADPVIVEDIEPGIYYGISNENYHAGPGISKSQLDDIADTPALYLWRKNAPVDTTKTKTLDLGTAFHCRVLEPEEFSNRFIVAPEFNRRTNAGKEEEKAFLMECASTGKTVITAEEGRKIELMYQSVMALPLGQWLVESAGHAESSIYWEDPETGILCRCRPDKIIPEFHWIMDVKTTADIQRFKTAYYDYRYHVQDAFYSDGYEAQFGVQPTFVFLVASTTIECGRYPVEIFMMGEEAKLAGQQEYHRNLRTLADCLNTDEWPAIKTLSLPRWAKEYAND
B10: RecE_CTD: carboxy terminus domain of E. coli RecE; SEQ ID NO: 3 (protein)
chain: GISNENYHAGPGVSKSQLDDIADTPALYLWRKNAPVDTTKTKTLDLGTAFHCRVLEPEEFSNRFIVAPEFNRRTNSGKEEEKAFLRECASTGKTVITAEEGRKIELMYQSVMALPLGQWLVESAGHAESSIYWEDPETAILCRCRPDKIIPEFHWIMDVKTTADIQRFKTAYYDYRYHVQDAFYSDGYEAQFGVQPTFVFLVASTTIECGRYPVEIFMMGEEAKLAGQLEYHRNLRTLADCLNTDEWPAIKTLSLPRWAKEYAND

The molecules below were run on HSP90AA1 locus (assay: mKate knock-in gene-editing assay, RecE/RecT homologs, HSP90AA1 locus). Conditions: HEK293 cells, MCP fusion, n=3.
Type: cell-based, human
Summary of the method: (§1)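 RecE/RecT homologs from 15 microbial species, codon-optimized and each fused via E-XTEN linker to MCP with NLS, tested for mKate knock-in. Cells transfected by Lipofectamine 3000 (HEK293T 250 ng DNA/well; HeLa, HepG2 400 ng); knock-in efficiency measured by flow cytometry 72 h post-transfection.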

Row | Molecule | Mean mKate+ (%), HSP90AA1 [%]
1 | B1 | 3.7067
2 | B2 | 6.0800
3 | B3 | 5.7200
4 | B4 | 5.6900
5 | B5 | 4.7200
6 | B6 | 5.7100
7 | B7 | 5.2333
8 | B8 | 6.0500

Each molecule was assayed on endogenous genomic loci (DYNLT1, HSP90AA1, AAVS1, ACTB) in HEK293T cells (assay: Kilobase mKate knock-in assay in HEK293T cells (flow cytometry)). Conditions: PCP no-recruitment control.
Type: cell-based, human
Description: Transfection HEK293T cells were seeded into 96-well plates (Corning) 12-24 hours prior to transfection at a density of 30,000 cells/well, and 250 ng of total DNA was transfected per well. HeLa and HepG2 cells were seeded into 48-well plates (Corning) one day prior to transfection at a density of 50,000 and 30,000 cells/well respectively, and 400 ng of total DNA was transfected per well. Transfections were performed with Lipofectamine 3000 (Life Technologies) following the manufacturer's instructions.
(§2) Fluorescence-activated cell sorting (FACS) mKate knock-in efficiency was analyzed on a CytoFLEX flow cytometer (Beckman Coulter; Stanford Stem Cell FACS Core). 72 hours after transfection, cells were washed once with PBS and dissociated with TrypLE Express Enzyme (Thermo Fisher Scientific). Cell suspension was then transferred to a 96-well U-bottom plate (Thermo Fisher Scientific) and centrifuged at 300×G for 5 minutes. After removing the supernatant, pelleted cells were resuspended with 50 μl 4% FBS in PBS, and cells were sorted within 30 minutes of preparation.
HEK293T, Hela, HepG2 and U2OS cells were seeded into 96-well plates (Corning) 12-24 hours prior to transfection at a density of 30,000 cells/well, and 250 ng of total DNA was transfected per well. Cells were transfected with Lipofectamine 3000 (Life Technologies) following the manufacturer's instructions when the cell are ˜70% confluence. In brief, we used 250 ng total DNA, 0.4 ul Lip3000 reagent, mixed with 10 ul of Opti-MEM per well. For the 250 ng DNA, we used 160 ng of dCas9-SSAP guide RNA plasmids (for double sgRNAd design, use equal amount of the two guide RNA plasmids, e.g., 80 ng each), 60 ng of pMCP-RecT or GFP control plasmid (addgene #64539) and 30 ng of PCR template DNA (the PCR primer could be found in Table 7, the template sequence could be found in Supplementary Sequences). Three days later, the cells were analyzed using FACS.
as §2, with “mKate” for “Fluorescence-activated cell sorting (FACS) mKate”, “transfection or 96 hours after electroporation,” for “transfection,”, “twice” for “once”, “300 g” for “300×G”, “analyzed” for “sorted”, “after” for “of”

Row | Molecule | activity in no-recruitment control
9 | B9 | had activities without recruitment

Same assay, conditions: five genomic sites (EMX1, VEGFA, HSP90AA1, DYNLT1, AAVS1); wtCas9

Row | Molecule | HDR / knock-in efficiency enhancement
10 | B1 | variable increases in knock-in efficiency
11 | B10 | variable increases in knock-in efficiency

The molecules below were run on DYNLT1 locus (assay: mKate knock-in gene-editing assay, RecE/RecT homologs, DYNLT1 locus). Conditions: HEK293 cells, MCP fusion, n=3.
Type: cell-based, human
Summary of the method: as §1

Row | Molecule | Mean mKate+ (%), DYNLT1 [%]
12 | B1 | 5.1767
13 | B2 | 5.2633
14 | B3 | 9.9567
15 | B4 | 5.6333
16 | B5 | 6.7700
17 | B6 | 6.0167
18 | B7 | 7.8033
19 | B8 | 5.0700
